# Results from patent US20110195069A1.
# Assays:
# [1] = molecular target: baboon factor D (in baboon serum) (baboon); experiment: cell-based or functional assay
# [2] = molecular target: dog factor D (in dog serum) (dog); experiment: cell-based or functional assay; conditions: scale: times less effective than for human factor D
# [3] = molecular target: human factor D (purified from human serum, or as present in human serum/plasma) (human) (UniProt P00746); experiment: cell-based or functional assay
# [4] = molecular target: human factor D (purified from human serum, or as present in human serum/plasma) (human) (UniProt P00746); experiment: ELISA: wells coated with purified human factor D, serially diluted MAb, HRP goat anti-mouse IgG (Fc), OD450
# [5] = molecular target: factor D/Pighu (pig-human factor D hybrid) (pig; human) (UniProt P00746); experiment: ELISA: wells coated with recombinant factor D protein at 0.5 µg/ml, serially diluted MAb 166-32, HRP goat anti-mouse IgG (Fc), OD450
# [6] = molecular target: factor D/VDA (human factor D mutant V113E, D116E, A118P) (human) (UniProt P00746); experiment: as above
substance,measurement,setting,value
MAb 166-32 (antibody),"inhibition of alternative complement hemolytic activity (rabbit red blood cells) of plasma samples from baboons given 5 mg/kg Mab 166-32, 18 hours after CPB",[1],79.3%
same,"neutralization of dog factor D in hemolytic assays, compared to human factor D",[2],> 10
same,alternative pathway hemolytic activity of plasma from extracorporeal circuits of human whole blood (molar ratio MAb : factor D),[3],1.5
same,inhibition of factor D dependent alternative pathway hemolysis of unsensitized rabbit RBCs (factor D depleted human serum supplemented with purified factor D),[3],0.3 µg/mL
same,molar ratio (MAb 166-32 to factor D) for inhibition of factor D dependent hemolysis (molar ratio MAb 166-32 : factor D),[3],0.5
same,EC50 (read off the curve),[4],0.008 µg/mL
same,EC50 (read off the curve),[5],0.02 µg/mL
same,EC50 (read off the curve),[6],0.02 µg/mL
